Source: publication PMC8900818, “The suppressor of copper sensitivity protein C from Caulobacter crescentus is a trimeric disulfide isomerase that binds copper(I) with subpicomolar affinity” (Acta Crystallographica. Section D, Structural Biology, 2022)

Key:
[1] = target: Caulobacter crescentus suppressor of copper sensitivity protein C, C2S variant (Caulobacter crescentus); assay: mass photometry; reduced proteins diluted to ~150 nM and added in 2 µl steps to 10 µl buffer (25 mM HEPES pH 7.5, 150 mM NaCl); Refeyn One; mass of the main peak against the monomer's mass
[2] = target: Caulobacter crescentus suppressor of copper sensitivity protein C, C2S variant (Caulobacter crescentus); assay: crystal structure; reduced CcScsC C2S at 130 mg/ml, 37-39% MPD, 0.02 M CaCl2, 0.2 M sodium acetate pH 7.25, 4°C; space group P63, one protomer per asymmetric unit, trimer by crystallographic symmetry
[3] = target: Caulobacter crescentus suppressor of copper sensitivity protein C, wild type (Caulobacter crescentus); assay: SEC-SAXS; inline SEC-SAXS (S200 5/150 GL) with sheath flow, 283 K, injection 5.6 mg/ml; molecular mass from the Porod volume
[4] = target: Caulobacter crescentus suppressor of copper sensitivity protein C, wild type (Caulobacter crescentus); assay: mass photometry; reduced proteins diluted to ~150 nM and added in 2 µl steps to 10 µl buffer (25 mM HEPES pH 7.5, 150 mM NaCl); Refeyn One; mass of the main peak against the monomer's mass
[5] = target: Proteus mirabilis ScsC (Proteus mirabilis); assay: as above
[6] = target: the molecule itself; assay: as above

Molecule: Caulobacter crescentus suppressor of copper sensitivity protein C, C2S variant (enzyme)
- stoichiometry N [1]: 3
- stoichiometry N [2]: 3

Molecule: Caulobacter crescentus suppressor of copper sensitivity protein C, wild type (enzyme)
- stoichiometry N [3]: 3
- stoichiometry N [4]: 3

Molecule: Proteus mirabilis ScsC (enzyme)
- stoichiometry N [5]: 3

B1: Escherichia coli DsbC (enzyme, UniProt P0AEG6 21-236, looked up)
chain: DDAAIQQTLAKMGIKSSDIQPAPVAGMKTVLTNSGVLYITDDGKHIIQGPMYDVSGTAPVNVTNKMLLKQLNALEKEMIVYKAPQEKHVITVFTDITCGYCHKLHEQMADYNALGITVRYLAFPRQGLDSDAEKEMKAIWCAKDKNKAFDDVMAGKSVAPASCDVDIADHYALGVQLGVSGTPAVVLSNGTLVPGYQPPKEMKEFLDEHQKMTSGK
notes: E. coli DsbC, UniProt P0AEG6; monomer printed as 24.1 kDa; Control protein of the mass photometry; Probably the mature protein without signal peptide; also called EcDsbC
- stoichiometry N [6]: 2
